For this test, the target named is T1, MAPRE1 (native MS), Q15691.
T1 chain: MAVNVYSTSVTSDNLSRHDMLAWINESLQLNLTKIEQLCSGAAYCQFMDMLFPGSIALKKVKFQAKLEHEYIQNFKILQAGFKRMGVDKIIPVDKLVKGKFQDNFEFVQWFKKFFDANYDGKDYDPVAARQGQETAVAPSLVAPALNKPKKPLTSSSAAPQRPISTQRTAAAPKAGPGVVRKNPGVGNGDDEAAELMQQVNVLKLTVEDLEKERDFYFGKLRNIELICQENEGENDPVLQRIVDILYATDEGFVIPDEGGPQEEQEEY
Kind of test: native MS. The conditions noted are these: remark: other sources report otherwise.

B1: MAPRE1 (native MS), Q15691 1-268 (natural protein)
chain: MAVNVYSTSVTSDNLSRHDMLAWINESLQLNLTKIEQLCSGAAYCQFMDMLFPGSIALKKVKFQAKLEHEYIQNFKILQAGFKRMGVDKIIPVDKLVKGKFQDNFEFVQWFKKFFDANYDGKDYDPVAARQGQETAVAPSLVAPALNKPKKPLTSSSAAPQRPISTQRTAAAPKAGPGVVRKNPGVGNGDDEAAELMQQVNVLKLTVEDLEKERDFYFGKLRNIELICQENEGENDPVLQRIVDILYATDEGFVIPDEGGPQEEQEEY
B1 had a stoichiometry N of 2.

A word on the stoichiometry N: it is the number of molecules, sites or subunits per partner or assembly.

Source of the values: article PMC11883961.
